Legend:
[1] = target: Aspartate-β-semialdehyde dehydrogenase from Aspergillus fumigatus (A. fumigatus); experiment: native gel or EMSA; native PAGE (3-12%), migration against molecular weight standards
[2] = target: T1, trASADH (T. rubrum aspartate-β-semialdehyde dehydrogenase) (Trichophyton rubrum, UniProt A0A080WMA9); experiment: isothermal titration calorimetry; type: binding
T1 construct: gene TERG_03598; full length 362 aa, N-terminal 6xHis tag (pET-28a), E. coli; homotetramer
T1 sequence (A0A080WMA9 1-362): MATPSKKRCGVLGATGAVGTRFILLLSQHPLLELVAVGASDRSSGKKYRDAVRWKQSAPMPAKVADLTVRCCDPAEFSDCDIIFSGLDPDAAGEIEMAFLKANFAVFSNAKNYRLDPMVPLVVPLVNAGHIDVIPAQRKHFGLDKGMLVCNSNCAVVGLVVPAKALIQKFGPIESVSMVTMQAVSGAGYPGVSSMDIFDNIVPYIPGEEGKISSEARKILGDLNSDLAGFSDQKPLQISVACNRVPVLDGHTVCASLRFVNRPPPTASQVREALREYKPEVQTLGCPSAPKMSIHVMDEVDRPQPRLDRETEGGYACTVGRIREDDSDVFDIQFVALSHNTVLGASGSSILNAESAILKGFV

[3] = target: Aspartate-β-semialdehyde dehydrogenase from Vibrio cholerae (V. cholerae); experiment: native gel or EMSA; native PAGE (3-12%), migration against molecular weight standards
[4] = target: Aspartate-β-semialdehyde dehydrogenase from Streptococcus pneumoniae (Streptococcus pneumoniae); experiment: as above
[5] = target: Aspartate-β-semialdehyde dehydrogenase from Streptococcus pneumoniae (Streptococcus pneumoniae); experiment: AUC; sedimentation velocity, 4 °C, 20 mM Tris pH 8.0, 100 mM NaCl, all proteins at OD280 = 0.85, 50,000 rpm, Sedfit
[6] = target: Aspartate-β-semialdehyde dehydrogenase from Cryptococcus neoformans (C. neoformans); experiment: native gel or EMSA; native PAGE (3-12%), migration against molecular weight standards
[7] = target: the molecule itself; experiment: cell-based or functional assay
[8] = target: the molecule itself; experiment: SEC; Superose 6 PC3.2/30, 20 mM Tris-HCl pH 8.0, 100 mM NaCl, ~3 mg/ml, calibrated with mass standards (also the final Superdex 200 purification step)
[9] = target: the molecule itself; experiment: AUC; sedimentation velocity, 4 °C, 20 mM Tris pH 8.0, 100 mM NaCl, all proteins at OD280 = 0.85, 50,000 rpm, Sedfit
[10] = target: the molecule itself; experiment: native gel or EMSA; native PAGE (3-12%), migration against molecular weight standards

With “Aspartate-β-semialdehyde dehydrogenase from Aspergillus fumigatus (enzyme)” as the molecule, how does the stoichiometry N [1] read?
The stoichiometry N was 4.

`NC(=O)c1ccc[n+]([C@@H]2O[C@H](COP(=O)(O)OP(=O)(O)OC[C@H]3O[C@@H](n4cnc5c(N)ncnc54)[C@H](OP(=O)(O)O)[C@@H]3O)[C@@H](O)[C@H]2O)c1` [NADP] was tested. Which Kd [2] did it give?
Its Kd is 76.9 µM.

“Aspartate-β-semialdehyde dehydrogenase from Vibrio cholerae (enzyme)” was tested. Which stoichiometry N [3] did it give?
The stoichiometry N was 2.

“Aspartate-β-semialdehyde dehydrogenase from Streptococcus pneumoniae (enzyme)” was tested. Which stoichiometry N [4] did it give?
The stoichiometry N was 2.

What about the stoichiometry N [5] of the same molecule?
The stoichiometry N was 2.

How did the stoichiometry N [6] turn out when “Aspartate-β-semialdehyde dehydrogenase from Cryptococcus neoformans (enzyme)” was run?
The stoichiometry N was 4.

B1: trASADH with mutation D196A (enzyme)
chain: SKKRCGVLGATGAVGTRFILLLSQHPLLELVAVGASDRSSGKKYRDAVRWKQSAPMPAKVADLTVRCCDPAEFSDCDIIFSGLDPDAAGEIEMAFLKANFAVFSNAKNYRLDPMVPLVVPLVNAGHIDVIPAQRKHFGLDKGMLVCNSNCAVVGLVVPAKALIQKFGPIESVSMVTMQAVSGAGYPGVSSMAIFDNIVPYIPGEEGKISSEARKILGDLNSDLAGFSDQKPLQISVACNRVPVLDGHTVCASLRFVNRPPPTASQVREALREYKPEVQTLGCPSAPKMSIHVMDEVDRPQPRLDRETEGGYACTVGRIREDDSDVFDIQFVALSHNTVLGASGSSILNAESAILKGFV
notes: Aspartate-β-semialdehyde dehydrogenase of Trichophyton rubrum BMU01672 (362 aa) with the point mutation D196A; parent as m1; source: E. coli B834(DE3) or Rosetta(DE3), purified (Ni-NTA, Hitrap Q, Superdex 200)
Which results are given for B1?
enzymatic activity (kcat) at 25 °C, tetrameric single mutant [7]: 15.9 s⁻¹; stoichiometry N [8]: 4

B2: Aspartate-β-semialdehyde dehydrogenase from Trichophyton rubrum, wild type (enzyme)
chain: SKKRCGVLGATGAVGTRFILLLSQHPLLELVAVGASDRSSGKKYRDAVRWKQSAPMPAKVADLTVRCCDPAEFSDCDIIFSGLDPDAAGEIEMAFLKANFAVFSNAKNYRLDPMVPLVVPLVNAGHIDVIPAQRKHFGLDKGMLVCNSNCAVVGLVVPAKALIQKFGPIESVSMVTMQAVSGAGYPGVSSMDIFDNIVPYIPGEEGKISSEARKILGDLNSDLAGFSDQKPLQISVACNRVPVLDGHTVCASLRFVNRPPPTASQVREALREYKPEVQTLGCPSAPKMSIHVMDEVDRPQPRLDRETEGGYACTVGRIREDDSDVFDIQFVALSHNTVLGASGSSILNAESAILKGFV
notes: Aspartate-β-semialdehyde dehydrogenase (ASADH) of Trichophyton rubrum BMU01672, wild type, 362 aa as printed; theoretical monomer 38.7 kDa; The apo crystal (4ZHS) was a selenomethionine derivative; Cloned in pET-28a; also called trASADH; ASADH; source: E. coli B834(DE3) or Rosetta(DE3), purified (Ni-NTA, Hitrap Q, Superdex 200)
With B2 as the molecule, how does the “stoichiometry N” value [9] read?
Its value is 4.

B3: trASADH with the triple mutation R309A-D196A-F198A (enzyme)
chain: SKKRCGVLGATGAVGTRFILLLSQHPLLELVAVGASDRSSGKKYRDAVRWKQSAPMPAKVADLTVRCCDPAEFSDCDIIFSGLDPDAAGEIEMAFLKANFAVFSNAKNYRLDPMVPLVVPLVNAGHIDVIPAQRKHFGLDKGMLVCNSNCAVVGLVVPAKALIQKFGPIESVSMVTMQAVSGAGYPGVSSMAIADNIVPYIPGEEGKISSEARKILGDLNSDLAGFSDQKPLQISVACNRVPVLDGHTVCASLRFVNRPPPTASQVREALREYKPEVQTLGCPSAPKMSIHVMDEVDRPQPRLDAETEGGYACTVGRIREDDSDVFDIQFVALSHNTVLGASGSSILNAESAILKGFV
notes: Aspartate-β-semialdehyde dehydrogenase of Trichophyton rubrum BMU01672 (362 aa) with R309A, D196A and F198A; parent as m1; also called trASADH R309A-D196A-F198A; dimeric triple mutant; source: E. coli B834(DE3) or Rosetta(DE3), purified (Ni-NTA, Hitrap Q, Superdex 200)
Which “stoichiometry N” value [9] does the source give for B3 here?
The value was 2.

B4: trASADH with mutation F198A (enzyme)
chain: SKKRCGVLGATGAVGTRFILLLSQHPLLELVAVGASDRSSGKKYRDAVRWKQSAPMPAKVADLTVRCCDPAEFSDCDIIFSGLDPDAAGEIEMAFLKANFAVFSNAKNYRLDPMVPLVVPLVNAGHIDVIPAQRKHFGLDKGMLVCNSNCAVVGLVVPAKALIQKFGPIESVSMVTMQAVSGAGYPGVSSMDIADNIVPYIPGEEGKISSEARKILGDLNSDLAGFSDQKPLQISVACNRVPVLDGHTVCASLRFVNRPPPTASQVREALREYKPEVQTLGCPSAPKMSIHVMDEVDRPQPRLDRETEGGYACTVGRIREDDSDVFDIQFVALSHNTVLGASGSSILNAESAILKGFV
notes: Aspartate-β-semialdehyde dehydrogenase of Trichophyton rubrum BMU01672 (362 aa) with the point mutation F198A; parent as m1; also called trASADH-F198A; Mutant F198A; source: E. coli B834(DE3) or Rosetta(DE3), purified (Ni-NTA, Hitrap Q, Superdex 200)
Which results are given for B4?
enzymatic activity (kcat) at 25 °C, tetrameric single mutant [7]: 15.7 s⁻¹; stoichiometry N [9]: 4

B5: trASADH with mutation R309A (enzyme)
chain: SKKRCGVLGATGAVGTRFILLLSQHPLLELVAVGASDRSSGKKYRDAVRWKQSAPMPAKVADLTVRCCDPAEFSDCDIIFSGLDPDAAGEIEMAFLKANFAVFSNAKNYRLDPMVPLVVPLVNAGHIDVIPAQRKHFGLDKGMLVCNSNCAVVGLVVPAKALIQKFGPIESVSMVTMQAVSGAGYPGVSSMDIFDNIVPYIPGEEGKISSEARKILGDLNSDLAGFSDQKPLQISVACNRVPVLDGHTVCASLRFVNRPPPTASQVREALREYKPEVQTLGCPSAPKMSIHVMDEVDRPQPRLDAETEGGYACTVGRIREDDSDVFDIQFVALSHNTVLGASGSSILNAESAILKGFV
notes: Aspartate-β-semialdehyde dehydrogenase of Trichophyton rubrum BMU01672 (362 aa) with the point mutation R309A; parent as m1; source: E. coli B834(DE3) or Rosetta(DE3), purified (Ni-NTA, Hitrap Q, Superdex 200)
With B5 as the molecule, how does the “enzymatic activity (kcat) at 25 °C, tetrameric single mutant” value [7] read?
The value was 12.9 s⁻¹.

And the “stoichiometry N” value [8]?
Its value is 4.

B6: trASADH with mutation Y189A (enzyme)
chain: SKKRCGVLGATGAVGTRFILLLSQHPLLELVAVGASDRSSGKKYRDAVRWKQSAPMPAKVADLTVRCCDPAEFSDCDIIFSGLDPDAAGEIEMAFLKANFAVFSNAKNYRLDPMVPLVVPLVNAGHIDVIPAQRKHFGLDKGMLVCNSNCAVVGLVVPAKALIQKFGPIESVSMVTMQAVSGAGAPGVSSMDIFDNIVPYIPGEEGKISSEARKILGDLNSDLAGFSDQKPLQISVACNRVPVLDGHTVCASLRFVNRPPPTASQVREALREYKPEVQTLGCPSAPKMSIHVMDEVDRPQPRLDRETEGGYACTVGRIREDDSDVFDIQFVALSHNTVLGASGSSILNAESAILKGFV
notes: Aspartate-β-semialdehyde dehydrogenase of Trichophyton rubrum BMU01672 (362 aa) with the point mutation Y189A; parent as m1; also called trASADH-Y189A; source: E. coli B834(DE3) or Rosetta(DE3), purified (Ni-NTA, Hitrap Q, Superdex 200)
With B6 as the molecule, how does the “stoichiometry N” value [9] read?
Its value is 4.

B7: Aspartate-β-semialdehyde dehydrogenase from Candida albicans (enzyme)
chain: MSVKKAGVLGATGSVGQRFILLLSKHPEFEIHALGASSRSAGKKYKDAASWKQTETLPETEQDIVVQECKPEGNFLECDVVFSGLDADVAGDIEKSFVEAGLAVVSNAKNYRREKDVPLVVPIVNPEHIDVVENKVKQAVSKGGKKPGFIICISNCSTAGLVAPLKPLVEKFGPIDALTTTTLQAISGAGFSPGVSGMDILDNIVPYISGEEDKLEWETKKILGGVNAEGTEFVPIPESEMKVSAQCNRVPVIDGHTECISLRFANRPAPSVEDVKQCLREYECAASKLGCHSAPKQTIHVLDQPDRPQPRLDRDRDSGYGVSVGRIREDSLLDFKMVVLSHNTIIGAAGAGILIAEILKAKNII
notes: Aspartate-β-semialdehyde dehydrogenase of Candida albicans (fungal ASADH); The construct used for native PAGE is not described; also called caASADH; C. albicans ASADH
With B7 as the molecule, how does the “stoichiometry N” value [10] read?
The value was 4.
